Source: publication PMC13577091

Legend:
[1] = molecular target: CcpA (Streptococcus pneumoniae D39?) (UniProt A0A0H2ZQ65); test: EMSA; conditions: Beyotime chemiluminescent EMSA kit, 5X binding buffer (composition and pH not stated), 10 ul, room temperature, 10 min then 20 min with labeled probe, 6% …
[2] = molecular target: CcpA;HPr (Streptococcus pneumoniae D39?;Streptococcus pneumoniae D39) (UniProt A0A0H2ZQ65+A0A0H2ZP52); test: EMSA; conditions: Beyotime chemiluminescent EMSA kit, 5X binding buffer (composition and pH not stated), 10 ul, room temperature, 10 min then 20 min with labeled probe, 6% …

TACACATCTGCTTCTAAAATATTGTTAGAAAACGATTTGACTGTCCTGATCAATTTGTCATGTTCTTATTTCATTTTACTATATTTTTGGTTCGCGGGAAGTCTACTAAGATACTTAAAGATGCAGATAGTGAAAAAAGGTGTAGACATTACCGTAAAAAAGTGATATAATCGTAAGATGTTCAATGTATAGGTGTTAATCATGAGTAGACGTTTTAA (double strand) [Pcps promoter probe]
binding [1]: binds
binding [2]: binds
